Here are results for four molecules from US20220227887A1 (ONO PHARMACEUTICAL, published 2022).

Experiment [1] has as its target T1, monomeric mouse LAG3-EC (strep-tagged) (mouse, UniProt Q61790 24-422, limits assumed).
T1 construct: It was immobilized on a streptavidin-coated biosensor; also called mouse LAG3 soluble protein; not shown: C-terminal strep tag
T1 sequence: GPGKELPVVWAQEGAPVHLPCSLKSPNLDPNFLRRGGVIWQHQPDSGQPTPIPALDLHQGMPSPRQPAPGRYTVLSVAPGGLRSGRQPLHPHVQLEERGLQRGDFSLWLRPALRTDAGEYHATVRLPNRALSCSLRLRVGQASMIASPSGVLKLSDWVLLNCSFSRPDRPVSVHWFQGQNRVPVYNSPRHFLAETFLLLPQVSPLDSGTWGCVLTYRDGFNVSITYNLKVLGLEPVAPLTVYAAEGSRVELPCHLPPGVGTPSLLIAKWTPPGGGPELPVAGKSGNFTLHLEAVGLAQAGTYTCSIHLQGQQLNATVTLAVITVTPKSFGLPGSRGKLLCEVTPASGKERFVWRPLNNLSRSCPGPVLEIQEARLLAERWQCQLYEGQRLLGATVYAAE
Description: biolayer interferometry (BLItz), strep-tagged monomeric mouse LAG3-EC on the biosensor, antibody at 66.67, 200, 666.7 and 2000 nM. The method, then:
(§1) The binding affinity of anti-mouse LAG3 antibodies (TKB58 and C9B7W) to a mouse LAG3 soluble protein was measured by biolayer interferometry. Briefly, cDNA fragments encoding D1 to D4 (LAG3-EC) of mouse LAG3 were amplified by PCR. A strep tag was added to the C-terminus of LAG3-EC. The chimeric cDNA was cloned into an expression vector modified from pEBMulti-Neo (Wako). Plat-E cells were transfected with the plasmid using Avalanche-Omni Transfection Reagent (EZ Biosystems) and the culture supernatant was collected after 48 hours. Monomeric mouse LAG3-EC (strep-tagged) was immobilized on a streptavidin-coated biosensor chip (Pall ForteBio) and binding of anti-mouse LAG3 antibodies at various concentrations was monitored with BLItz (Pall ForteBio). The chips were washed with PBS and the dissociation rates were analyzed. The binding rate constant (ka), the dissociation rate constant (kd), and the dissociation constant […] were calculated with BLItz Pro software. In TKB58, as compared with a case in C9B7W, ka was about 26 times faster and kd was 3.6 times slower.
On the technique in general: BLI is a label-free optical method that tracks binding on a fibre tip over time.

The target of experiment [2] is T2, mouse LAG3 (wild type), forcibly expressed on DO11.10 or B3Z cells (mouse, UniProt Q61790 24-521).
T2 construct: The whole entry is named; also called mLAG3; mLAG3 WT
T2 sequence: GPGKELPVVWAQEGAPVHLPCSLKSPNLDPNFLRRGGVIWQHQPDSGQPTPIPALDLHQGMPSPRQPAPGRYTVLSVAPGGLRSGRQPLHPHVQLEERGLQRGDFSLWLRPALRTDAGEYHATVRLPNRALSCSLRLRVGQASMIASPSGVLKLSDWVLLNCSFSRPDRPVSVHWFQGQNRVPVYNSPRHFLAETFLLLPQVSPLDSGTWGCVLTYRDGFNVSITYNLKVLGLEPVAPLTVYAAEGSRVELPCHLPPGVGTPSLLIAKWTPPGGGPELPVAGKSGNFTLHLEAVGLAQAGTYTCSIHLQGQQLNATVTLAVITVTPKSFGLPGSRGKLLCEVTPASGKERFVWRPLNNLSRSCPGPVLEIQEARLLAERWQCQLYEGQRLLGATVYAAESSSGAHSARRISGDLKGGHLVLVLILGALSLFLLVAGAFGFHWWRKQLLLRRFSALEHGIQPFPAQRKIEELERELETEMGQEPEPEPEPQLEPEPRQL
Description: flow cytometry of DO11.10-mLAG-3 cells (CD3ε +, LAG-3 +) stained with culture supernatant, detected with anti-FLAG tag antibody. From the text:
A nucleic acid encoding the heavy and light chain variable regions of an anti-mouse LAG3 antibody (TKB58) and an anti-mouse CD3s antibody (2C11) was synthesized, amplified by PCR, and was cloned into an expression plasmid vector produced by modifying pEBMulti-Neo (Wako) or pSecTag2/Hygro (Thermo Fisher Scientific), whereby expression plasmids of bispecific molecules 2C11xTKB58 (SEQ ID NO: 31) and TKB58x2C11 (SEQ ID NO: 32) recognizing mouse LAG3 and […] were produced. The expression plasmid was transfected into PlatE cells using Avalanche-Omni Transfection Reagent (EZ Biosystems), and the culture supernatant was collected after 48 hours. BW5147, DO11.10, and DO11.10-mLAG3 cells were stained using the culture supernatant.
On the technique in general: In flow cytometry, cells or beads pass a laser one at a time.

Experiment [3] deals with T2, mouse LAG3 (wild type), forcibly …. Kind of experiment: flow cytometry of cells stained with culture supernatant. From the text: A nucleic acid encoding the heavy and light chain variable regions of an anti-mouse LAG3 antibody (TKB58) and an anti-mouse CD8 antibody (YTS169) was synthesized, amplified by PCR, and was cloned into an expression plasmid vector produced by modifying pEBMulti-Neo (Wako), whereby an expression plasmid of a bispecific molecule TKB58xYTS169 (SEQ ID NO: 33) recognizing mouse LAG3 and mouse CD8 was produced. The expression plasmid was transfected into PlatE cells using Avalanche-Omni Transfection Reagent (EZ Biosystems), and the culture supernatant was collected after 48 hours. DO11.10, DO11.10-mLAG3, B3Z, and B3Z-mLAG3 cells were stained using the culture supernatant.

In experiment [4] the target is T1, monomeric mouse LAG3-EC (strep-tagged). Description: biolayer interferometry (BLItz); reference C9B7W. As to the method:
as §1

One may read the Kd as the free concentration of one partner at which half of the binding sites on the other are occupied at equilibrium, for simple one-to-one binding. The low end stands for a tighter complex, the high end for a looser complex. Broadly, the koff is the rate constant with which the complex falls apart. As a reminder, the kon is the rate constant with which the complex forms. High values mean fast association, low ones slow association.

anti-mouse LAG3 antibody C9B7W: in experiment [1], the Kd is 414 nM, the koff was found to be 0.00392 s⁻¹ and the kon is 9480 M⁻¹ s⁻¹.

B1: bispecific molecule 2C11xTKB58 (bispecific antibody)
chain: DAAQPAREVQLVESGGGLVQPGKSLKLSCEASGFTFSGYGMHWVRQAPGRGLESVAYITSSSINIKYADAVKGRFTVSRDNAKNLLFLQMNILKSEDTAMYYCARFDWDKNYWGQGTMVTVSSGGGGSIVLTQSPATLSVTPGDSVSLSCRASQSISNNLHWYQQKSHESPRLLIKYASQSISGIPSRFSGSGSGTDFTLSINSVETEDFGMYFCQQSNSWPQYTFGGGTKLEIKGGGGSGGGGSGGGGSVQLQQSGAELVRPGALVKLSCKASGFNIKDYYMHWVKQRPEQGLEWIGWIDPENGNTIYDPKFQDKASLTADTSSNTAYLQLSSLTSEDTAVYYCAPERGYDYAMDYWGQGTSVTVSSGGGGSDIQMTQSPSSLPASLGDRVTINCQASQDISNYLNWYQQKPGKAPKLLIYYTNKLADGVPSRFSGSGSGRDSSFTISSLESEDIGSYYCQQYYNYPWTFGPGTKLEIKGGGGSDYKDDDDKNSAVDHHHHHH
notes: Used as culture supernatant of transfected PlatE cells
Regarding B1, the binding result in experiment [2] was “binds”.

B2: bispecific molecule TKB58xYTS169 (bispecific antibody)
chain: DAAQPARVQLQQSGAELVRPGALVKLSCKASGFNIKDYYMHWVKQRPEQGLEWIGWIDPENGNTIYDPKFQDKASLTADTSSNTAYLQLSSLTSEDTAVYYCAPERGYDYAMDYWGQGTSVTVSSGGGGSDIVLTQSPAMAMSPGERITISCRASESVSTRMHWYQQKPGQQPKLLIYGASNLESGVPARFSGSGSGTDFTLTIDPVEANDTATYFCQQSWYDPWTFGGGTKLELKGGGGSGGGGSGGGGSEVKLQESGGGLVQPGRSLKLSCAASGFNFNDYWMGWVRQAPGKGLEWIGEINKDSSTINYTPSLKDKFTISRDNAQNTLYLQMSKLGSEDTAIYYCARARGMMVLIIPHYFDYWGQGVMVTVSSTGGGGSIVLTQSPATLSVTPGDSVSLSCRASQSISNNLHWYQQKSHESPRLLIKYASQSISGIPSRFSGSGSGTDFTLSINSVETEDFGMYFCQQSNSWPQYTFGGGTKLEIKGGGGSDYKDDDDKNSAVDHHHHHH
notes: as for B1
On to B2, for which, in experiment [3], the binding result is “binds”.

B3: anti-mouse LAG3 antibody TKB58 (antibody, V domains shown)
VH: VQLQQSGAELVRPGALVKLSCKASGFNIKDYYMHWVKQRPEQGLEWIGWIDPENGNTIYDPKFQDKASLTADTSSNTAYLQLSSLTSEDTAVYYCAPERGYDYAMDYWGQGTSVTVSS
VL: IVLTQSPATLSVTPGDSVSLSCRASQSISNNLHWYQQKSHESPRLLIKYASQSISGIPSRFSGSGSGTDFTLSINSVETEDFGMYFCQQSNSWPQYTFGGGTKLEIK
notes: Full-form antibody; also called TKB58 antibody; full-form anti-mouse LAG3 antibody
As for B3, in experiment [4], the “fold faster ka against C9B7W” value is ~26 times, the “fold lower KD against C9B7W” value was 94 times and the “fold slower kd against C9B7W” value came to 3.6 times. In experiment [1], this molecule returned an equilibrium dissociation constant (Kd) of 4.39 nM, a koff of 0.0011 s⁻¹ and a kon of 251000 M⁻¹ s⁻¹.
